Measurements reported in publication PMC10239968, “[^18F]AlF-NOTA-ADH-1: A new PET molecular radiotracer for imaging of N-cadherin-positive tumors” (Frontiers in Oncology, 2023).
Read-outs that look alike come from different tables or passages of the source.

Assays:
in vivo = assay: in vivo; set-up: species or system Kunming mice; settings: mouse; for tissue uptake at 2 min / tissue uptake at 5 min / tissue uptake at 0.25 h / tissue uptake at 0.5 h / tissue uptake at 1 h / tissue uptake at 2 h: Kunming, total radioactivity
Procedure: Thirty SPF Kunming mice weighing 18-20g were randomly divided into 6 groups (n=5). As described above, [^18F]AlF-NOTA-ADH-1 was purified and separated by HPLC analysis. Each mouse was injected with a dose of 0.74MBq (20μCi) through a caudal vein. Blood was collected from the orbit, the mice were sacrificed, and the brain, heart, lung, liver, spleen, kidney, stomach, intestine, muscle, bone and other organs were taken at 2 min, 5 min, 15 min, 30 min, 60min and 120min after injection. The radioactivity results were recorded as injected radioactivity per gram of tissue (% ID/g) corrected for background and decay.

SW480 tumor xenografts = assay type: in vivo, BALB/c nu/nu mice; settings: SW480 xenograft nude mice, n=5, mean±SD
Procedure: (§1) All animal experiments were performed in accordance with and approved by the Institutional Animal Care and Use Committee guidelines of the First Affiliated Hospital of Zhejiang University School of Medicine. BALB/c nu/nu mice (female, 20 ± 3 g, 4- to 6-week-old; Department of Laboratory Animal Science, Zhejiang University) were used in this study. The SW480 and BxPC3 xenografts were generated, and 5×10^6 tumor cells were subcutaneously injected into the flanks of female athymic nude mice. The PDX-bearing mouse models were established as follows. Pancreatic cancer (diagnosed as pancreatic ductal adenocarcinoma) tissues were obtained from the surgery of a patient. Written informed consent was obtained from the patient, and the research protocol was approved by the Clinical Research Ethics Committee of the First Affiliated Hospital of Zhejiang University School of Medicine. The sample was sectioned into about 1mm^3 pieces, and the tumor tissues were subcutaneously implanted into BALB/c nu/nu mice flanks. Mice were allowed free access to sterile water and food and were kept under strict disease-free conditions with controlled temperature (~25°C), humidity (50-70%), and circadian rhythms (12-hour light/dark cycles). All necessary procedures were carried out to minimize discomfort and avoid the waste of animals. The length and width of the tumor were measured every other day. Biodistribution studies and positron emission tomography in mice were performed after the tumor volume reached 150 to 200 mm^3.
(§2) The BALB/c nude mice were randomized into different tumor models (SW480, BxPC3, and pancreatic PDX), including 5 mice per group. Each nude mouse was injected with 0.74MBq (20μCi) [^18F]AlF-NOTA-ADH-1 through the caudal vein. Blood was collected from the orbit, and the mice were dissected to collect the brain, heart, lung, liver, liver, spleen, stomach, intestine, muscle, bone and others at 30 min, […], 60min, 90min and 120min after injection. In the blocked group, the study was performed with a saturating dose of ADH-1 (20 mg/kg of mouse body weight) intravenously administered 60min before the intravenous injection of [^18F]AlF-NOTA-ADH-1 in the pancreatic PDX model and SW480 xenograft model. The mice in the tumor xenograft model were sacrificed 1h after [^18F]AlF-NOTA-ADH-1 injection. The nude mice were dissected, and tumor tissues and related tissues (blood, brain, heart, lung, liver, spleen, kidney, stomach, intestine, muscle and bone) were weighed, and their radioactivity was measured by γ-counter. The radioactivity results were recorded as % ID/g.

BxPC3 tumor xenografts = assay: in vivo; assay type: in vivo, BALB/c nu/nu mice; settings: for T/Blood ratio / T/Muscle ratio / Tumor uptake: BxPC3 xenograft nude mice, n=5, mean±SD
Procedure: as §1, §2

[1] = iv, 0.74 MBq (20 uCi) per mouse, Blood radioactive concentration
[2] = iv, 0.74 MBq (20 uCi) per mouse, Bone uptake
[3] = iv, 0.74 MBq (20 uCi) per mouse, Brain uptake
[4] = iv, 0.74 MBq (20 uCi) per mouse, Intestines uptake
[5] = iv, 0.74 MBq (20 uCi) per mouse, Muscle uptake
[6] = iv, 0.74 MBq (20 uCi) per mouse, Skin uptake
[7] = blocking (ADH-1 20 mg/kg i.v. 60min before), 60min p.i.

## CC(=O)N[C@H]1CSSC[C@@H](C(=O)NCCNC(=O)CN2CCN(CC(=O)O)CCN(CC(=O)O)CC2)NC(=O)[C@H](C(C)C)NC(=O)[C@H](C)NC(=O)[C@H](Cc2c[nH]cn2)NC1=O [[^18F]AlF-NOTA-ADH-1]
In vivo; [1]
  tissue uptake at 2 min: 18.8 ± 1.95 %ID/g
  tissue uptake at 5 min: 8.77 ± 1.37 %ID/g
  tissue uptake at 0.25 h: 3.79 ± 1.19 %ID/g
  tissue uptake at 0.5 h: 2.28 ± 0.81 %ID/g
  tissue uptake at 1 h: 2.15 ± 0.18 %ID/g
  tissue uptake at 2 h: 1.04 ± 0.36 %ID/g
In vivo; [2]
  tissue uptake at 2 min: 5.3 ± 0.94 %ID/g
  tissue uptake at 5 min: 6.71 ± 0.62 %ID/g
  tissue uptake at 0.25 h: 3.72 ± 0.29 %ID/g
  tissue uptake at 0.5 h: 3.09 ± 0.26 %ID/g
  tissue uptake at 1 h: 1.51 ± 0.36 %ID/g
  tissue uptake at 2 h: 1.38 ± 0.73 %ID/g
In vivo; [3]
  tissue uptake at 2 min: 1.05 ± 0.25 %ID/g
  tissue uptake at 5 min: 0.87 ± 0.3 %ID/g
  tissue uptake at 0.25 h: 0.46 ± 0.1 %ID/g
  tissue uptake at 0.5 h: 0.39 ± 0.1 %ID/g
  tissue uptake at 1 h: 0.22 ± 0.05 %ID/g
  tissue uptake at 2 h: 0.58 ± 0.68 %ID/g
In vivo; iv, 0.74 MBq (20 uCi) per mouse, Heart uptake
  tissue uptake at 2 min: 9.15 ± 0.91 %ID/g
In vivo; [4]
  tissue uptake at 2 min: 5.39 ± 0.84 %ID/g
  tissue uptake at 5 min: 6.06 ± 1.42 %ID/g
  tissue uptake at 0.25 h: 5.73 ± 0.64 %ID/g
  tissue uptake at 0.5 h: 6.28 ± 0.59 %ID/g
  tissue uptake at 1 h: 5.27 ± 1.09 %ID/g
  tissue uptake at 2 h: 4.18 ± 0.53 %ID/g
In vivo; [5]
  tissue uptake at 2 min: 3.97 ± 0.56 %ID/g
  tissue uptake at 5 min: 5.91 ± 1.16 %ID/g
  tissue uptake at 0.25 h: 2.79 ± 0.68 %ID/g
  tissue uptake at 0.5 h: 3.32 ± 1.77 %ID/g
  tissue uptake at 1 h: 1.08 ± 0.21 %ID/g
  tissue uptake at 2 h: 1.22 ± 0.7 %ID/g
In vivo; [6]
  tissue uptake at 2 min: 5.6 ± 0.85 %ID/g
  tissue uptake at 5 min: 5.08 ± 2.74 %ID/g
  tissue uptake at 0.25 h: 3.11 ± 1.47 %ID/g
  tissue uptake at 0.5 h: 2.59 ± 0.96 %ID/g
  tissue uptake at 1 h: 1.85 ± 1.48 %ID/g
  tissue uptake at 2 h: 1.1 ± 0.96 %ID/g
In vivo; iv, 0.74 MBq, Heart uptake
  tissue uptake at 5 min: 7.54 ± 2.08 %ID/g
  tissue uptake at 0.25 h: 3.57 ± 0.82 %ID/g
  tissue uptake at 0.5 h: 3.64 ± 0.66 %ID/g
  tissue uptake at 1 h: 1.19 ± 0.7 %ID/g
  tissue uptake at 2 h: 1.01 ± 0.15 %ID/g
In vivo; iv, 0.74 MBq, Kidney uptake
  tissue uptake at 2 min: 24.9 ± 1.12 %ID/g
  tissue uptake at 5 min: 36.5 ± 2 %ID/g
  tissue uptake at 0.25 h: 22.1 ± 1.43 %ID/g
  tissue uptake at 0.5 h: 25.7 ± 1.17 %ID/g
  tissue uptake at 1 h: 22.2 ± 1.92 %ID/g
  tissue uptake at 2 h: 15.2 ± 0.96 %ID/g
In vivo; iv, 0.74 MBq, Liver uptake
  tissue uptake at 2 min: 8.01 ± 1.26 %ID/g
  tissue uptake at 5 min: 7.09 ± 2.03 %ID/g
  tissue uptake at 0.25 h: 14.8 ± 1.11 %ID/g
  tissue uptake at 0.5 h: 16.1 ± 2.34 %ID/g
  tissue uptake at 1 h: 21.6 ± 3.53 %ID/g
  tissue uptake at 2 h: 13.7 ± 2.35 %ID/g
In vivo; iv, 0.74 MBq, Lung uptake
  tissue uptake at 2 min: 6.26 ± 1.29 %ID/g
  tissue uptake at 5 min: 4.74 ± 1.69 %ID/g
  tissue uptake at 0.25 h: 3.05 ± 0.4 %ID/g
  tissue uptake at 0.5 h: 2.15 ± 0.27 %ID/g
  tissue uptake at 1 h: 2.19 ± 0.42 %ID/g
  tissue uptake at 2 h: 1.62 ± 0.35 %ID/g
In vivo; iv, 0.74 MBq, Spleen uptake
  tissue uptake at 2 min: 3.84 ± 1.47 %ID/g
  tissue uptake at 5 min: 5.09 ± 1.29 %ID/g
  tissue uptake at 0.25 h: 3.08 ± 0.55 %ID/g
  tissue uptake at 0.5 h: 2.66 ± 0.22 %ID/g
  tissue uptake at 1 h: 1.81 ± 0.57 %ID/g
  tissue uptake at 2 h: 1.24 ± 0.3 %ID/g
In vivo; iv, 0.74 MBq, Stomach uptake
  tissue uptake at 2 min: 5.63 ± 1.98 %ID/g
  tissue uptake at 5 min: 7.27 ± 1.89 %ID/g
  tissue uptake at 0.25 h: 4.26 ± 0.55 %ID/g
  tissue uptake at 0.5 h: 4.78 ± 0.98 %ID/g
  tissue uptake at 1 h: 2.32 ± 0.56 %ID/g
  tissue uptake at 2 h: 1.55 ± 0.2 %ID/g
In vivo
  In vivo defluorination (bone uptake): no obvious in vivo defluorination
In vivo; iv
  Blood clearance: rapid blood clearance
SW480 tumor xenografts; [7]
  T/Blood ratio: 3.96±0.33
  T/Muscle ratio: 1.03±0.56
  Tumor uptake: 1.07±0.57 %ID/g
SW480 tumor xenografts; non-blocking, 30min p.i.
  T/Blood ratio: 5.77±0.13
  T/Muscle ratio: 1.75±0.47
  Tumor uptake: 1.73±0.11 %ID/g
SW480 tumor xenografts; non-blocking, 60min p.i.
  T/Blood ratio: 7.42±1.01
  T/Muscle ratio: 1.91±0.69
  Tumor uptake: 2.08±1.64 %ID/g
SW480 tumor xenografts; non-blocking, 90min p.i.
  T/Blood ratio: 9.6±0.76
  T/Muscle ratio: 1.23±0.92
  Tumor uptake: 0.96±0.15 %ID/g
SW480 tumor xenografts; non-blocking, 120min p.i.
  T/Blood ratio: 6.08±0.35
  T/Muscle ratio: 0.86±0.23
  Tumor uptake: 0.73±0.67 %ID/g
BxPC3 tumor xenografts; BxPC3 tumor model
  Tumor tissue uptake: no significant uptake
BxPC3 tumor xenografts; 30min p.i.
  T/Blood ratio: 3.18± 0.08
  T/Muscle ratio: 0.86±0.21
  Tumor uptake: 0.89±0.12 %ID/g
BxPC3 tumor xenografts; 60min p.i.
  T/Blood ratio: 4.22±0.23
  T/Muscle ratio: 0.96±0.32
  Tumor uptake: 1.07±0.36 %ID/g
BxPC3 tumor xenografts; 90min p.i.
  T/Blood ratio: 5.45±0.10
  T/Muscle ratio: 0.66±0.19
  Tumor uptake: 0.60±0.12 %ID/g
BxPC3 tumor xenografts; 120min p.i.
  T/Blood ratio: 1.42±0.13
  T/Muscle ratio: 0.63±0.23
  Tumor uptake: 0.37±0.07 %ID/g
